From patent publication US20240052061A1 (published 2024)
Numbering of substitutions follows the chain as printed. Names may count otherwise. Values belong to the binder of their own block, whether it stands above or below them.

Key:
[1] = biological target: T1, human ecto-nucleoside triphosphate diphosphohydrolase-3 (NTPDase3) (human, UniProt O75355 1-529); assay: flow cytometry; RT4 cells
T1 chain: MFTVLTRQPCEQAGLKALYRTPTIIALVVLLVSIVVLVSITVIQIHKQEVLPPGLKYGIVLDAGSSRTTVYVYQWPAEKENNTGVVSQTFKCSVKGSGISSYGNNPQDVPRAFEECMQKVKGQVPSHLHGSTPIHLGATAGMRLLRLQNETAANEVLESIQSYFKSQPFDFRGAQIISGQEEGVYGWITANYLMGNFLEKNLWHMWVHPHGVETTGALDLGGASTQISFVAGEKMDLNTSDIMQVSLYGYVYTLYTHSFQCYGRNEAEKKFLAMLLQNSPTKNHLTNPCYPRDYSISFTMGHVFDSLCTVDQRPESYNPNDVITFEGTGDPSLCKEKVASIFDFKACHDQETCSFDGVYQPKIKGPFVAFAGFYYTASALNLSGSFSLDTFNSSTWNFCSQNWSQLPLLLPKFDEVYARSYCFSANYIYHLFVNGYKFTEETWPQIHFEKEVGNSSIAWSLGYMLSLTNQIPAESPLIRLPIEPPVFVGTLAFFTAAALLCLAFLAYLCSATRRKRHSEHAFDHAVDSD

[2] = biological target: T1, human ecto-nucleoside triphosphate …; assay: flow cytometry; HEK293T-hENTPD3 cells
[3] = biological target: T1, human ecto-nucleoside triphosphate …; assay: flow cytometry; COS7-hENTPD3 cells
[4] = biological target: T1, human ecto-nucleoside triphosphate …; assay: flow cytometry; CHO-hENTPD3 cells
[5] = biological target: T1, human ecto-nucleoside triphosphate …; assay: flow cytometry; CHO-hENTPD3 cells
[6] = biological target: T1, human ecto-nucleoside triphosphate …; assay: flow cytometry; CHO-hENTPD3 cells
[7] = biological target: T1, human ecto-nucleoside triphosphate …; assay: flow cytometry; COS7-hENTPD3 cells
[8] = biological target: T1, human ecto-nucleoside triphosphate …; assay: flow cytometry; COS7-hENTPD3 cells
[9] = biological target: T1, human ecto-nucleoside triphosphate …; assay: flow cytometry; HEK293T-hENTPD3 cells
[10] = biological target: T1, human ecto-nucleoside triphosphate …; assay: flow cytometry; COS7-hENTPD3 cells
[11] = biological target: T1, human ecto-nucleoside triphosphate …; assay: flow cytometry; CHO-hENTPD3 cells
[12] = biological target: T1, human ecto-nucleoside triphosphate …; assay: flow cytometry; CHO-hENTPD3 cells, 20 min at 4°C

Kd [5]: 1.5 nM
Kd [7]: 0.85 nM
B3: humanized 38D5 hIgG1 variant LC.1 (P43A) (antibody, V domains shown)
VH: EQQLLESGGGLVQPGGSLRLSCAASGIDFNNYGISWVRQAPGKGLEWIAYKYPGFGIRNYANSVKGRFTISSDNSKNTVYLQMNSLRAEDTAVYFCARGARYRHDDYGALNLWGPGTLVTVSS
VL: DIQMTQSPSTLSASVGDRVTITCQASQSVTNLLAWYQQKPGKAPKLLIYGASNLESGVPSRFSGSGSGTEFTLTISSLQPDDFATYYCQSGYYSANTFGPGTKVDIK

Kd [10]: 1.26 nM
Kd [11]: 1.8 nM
B5: PBI #30af8 hIgG1 (antibody, V domains shown)
VH: QVQLQESGGGLIQPGGSLRLSCAASGFQSDSSDYAMSWVRQAPGKGLEWVSSISGTGGSTYYADSVKGRFTISRDNSKNTLYVQMTSLTAEDTAVYYCAKVVGFSTYDYYYHYALDVWGQGTTVTVSS
VL: QPVLTQPPSASGTPGQRVTISCSGSSSNIGSNTVNWYQQLPGTAPKLLIYSDDQRPSGVPDRFSGSKSGTSASLTISGLKTEDEAGYYCQSYDTSNVVFGGGTKVTVL

Kd [10]: 1.28 nM
Kd [11]: 1.82 nM
B6: PBI #30af4 hIgG4 (antibody, V domains shown)
VH: B5 VH with Q28T, D30S, T56S, G58V, F104Y, T106V
VL: B5 VL with D53N, Y92D

Kd [10]: 1.63 nM
Kd [11]: 1.85 nM
B7: PBI #30af6 hIgG1 (antibody, V domains shown)
VH: B5 VH with Q28T, D30S, T56S, V102F, F104Y, T106M
VL: B5 VL with V18I, D52N, D53N, Y92D

Kd [12]: 20.9 nM
Kd [11]: 1.64 nM
B8: PBI #30 hIgG1 (antibody, V domains shown)
VH: B5 VH with Q28T, D30S, T56S, F104Y, T106M
VL: QPVLTQPPSASGTPGQRVTISCSGSSSNIGSNTVNWYQQLPGTAPKLLIYSNNQRPSGVPDRFSGSKSGTSASLTISGLKTEDEAGYYCQSYDTSNVVFGGGTKVTVLG

Kd [10]: 1.68 nM
Kd [11]: 1.87 nM
B9: PBI #30af7 hIgG1 (antibody, V domains shown)
VH: B5 VH with Q28T, S29T, D30S, T56S, V101D, F104Y
VL: B5 VL with I29V, D52N, D53N

Kd [10]: 1.43 nM
Kd [11]: 1.9 nM
B10: PBI #30af8 hIgG4 (antibody, V domains shown)
VH: B5 VH
VL: B5 VL

Kd [10]: 1.26 nM
Kd [11]: 1.62 nM
B11: PBI #30af4 hIgG1 (antibody, V domains shown)
VH: B5 VH with Q28T, D30S, T56S, G58V, F104Y, T106V
VL: B5 VL with D53N, Y92D

Kd [10]: 1.58 nM
Kd [11]: 2.18 nM
B12: PBI #30af6 hIgG4 (antibody, V domains shown)
VH: B5 VH with Q28T, D30S, T56S, V102F, F104Y, T106M
VL: B5 VL with V18I, D52N, D53N, Y92D

Kd [10]: 2.83 nM
Kd [11]: 2.61 nM
B13: PBI #30af7 hIgG4 (antibody, V domains shown)
VH: B5 VH with Q28T, S29T, D30S, T56S, V101D, F104Y
VL: B5 VL with I29V, D52N, D53N

The next lines start with the binder.

B1: 44H5 Hu/Ra (antibody, V domains shown)
VH: QEQLEESGGDLVKPEGSLTLTCTASGFDSSSTYYMCWVRQAPGKGLEWSGCIYTGGLTYYASWAKGRFTISKTSSTTVTLQMTSLTAADTATYFCASYIGSRFYMPGFSLWGPGTLVTVSS
VL: AIVMTQTPSSKSVPVGDTVTINCQASESIYSNNRLAWFQQKPGQPPKLLIYLASTLASGVPSRFKGSGSGTQFTLTISDVVCDDAATYYCAGYKGSSTDGTAFGGGTEVVVKG
Kd [1]: 1.15 nM
Kd [2]: 0.15 nM
Kd [3]: 0.3 nM
Kd [4]: 0.95 nM

B2: 38D5 hIgG1 (antibody, V domains shown)
VH: B3 VH
VL: B3 VL with A43P
Kd [5]: 0.89 nM
Kd [6]: 0.56 nM
Kd [7]: 0.52 nM
Kd [8]: 0.56 nM
Kd [9]: 4.34 nM

B4: 3E9 Hu/Ra (antibody, V domains shown)
VH: QSLEESGGDLVKPGASLTLTCTASGFSFSSSDWICWVRQAPGKGLEWIACIYAGSIGGAYFASWVNGRFTISRASSTTVTLQMTSLTAADTATYFCARSSSNGRLKLDQFDLWGPGTLVTVSS
VL: AYDMTQTPASVEVAVGGTVTINCQASQSIGGWLSWYRQKPGQPPSLLIYKASTLASGVSSRFSGTGSRTHFTLTINGVQCADAATYYCQQGSAADVANTFGGGTEVVVKG
Kd [2]: 1.79 nM
Kd [3]: 0.63 nM
Kd [4]: 1.94 nM

B14: 37H1 Hu/Ra (antibody, V domains shown)
VH: QSVEESGGRLVTPGTPLTLTCTVSGFSLSSYAVGWVRQAPGKGLEFIGIITYNGATYYASWAEGRFPISKTSSTTVDLKMTSPTTEDTATYFCARARYGGYSTNSYYLNIWGPGTLVTVSS
VL: DVVMTQTPASVSAAVGGTVTINCQASENIYRILAWYQQKPGQRPKLLIYGASNLETGVPSRFKGSGSGTEYTLTISDLECDDAATYYCQGVLWNSNDSTFGGGTEVVVKG
Kd [1]: 0.16 nM
Kd [2]: 1.4 nM
Kd [3]: 0.54 nM
Kd [4]: 2.26 nM

B15: 42D8 Hu/Ra (antibody, V domains shown)
VH: B14 VH with V33M, G54S, A55N, S60N, E63K
VL: B14 VL with R43P, W93Y
Kd [2]: 0.55 nM
Kd [3]: 0.64 nM
Kd [4]: 1.96 nM

B16: 4F9 Hu/Ra (antibody, V domains shown)
VH: B14 VH with V33M, A55N, E63K
VL: B14 VL with W93Y
Kd [1]: 0.19 nM
Kd [2]: 0.46 nM
Kd [3]: 0.45 nM
Kd [4]: 1.52 nM

B17: 16D4 Hu/Ra (antibody, V domains shown)
VH: B14 VH with V33M, A55G, E63K
VL: B14 VL with I32V, W93Y, N94D, S95N
Kd [1]: 0.2 nM
Kd [2]: 0.38 nM
Kd [3]: 0.8 nM
Kd [4]: 1.94 nM

B18: 38D12 Hu/Ra (antibody, V domains shown)
VH: QSVEESGGRLVTPGTPLTLTCTVSGFSLSSYVINWVRQAPGKGLEWIGTISSSGSTYYASWAKGRFTISTTSSTTVDLKITSPTTEDTATYFCARGADGAFISDYFNIWGPGTLVTVSS
VL: DIVMTQTPSSVSAAVGGTVTIKCQANENIDSWLAWYQQKPGQRPKLLIYYASTLASGVPSRFKGSGSGTEYTLTISDLECADGATYYCQSYDTISDYGVGFGGGTEVVVKG
Kd [1]: 2.63 nM
Kd [2]: 3.06 nM
Kd [3]: 2.8 nM
Kd [4]: 8.3 nM
